From patent publication US20220025344A1 (Novartis, published 2022) come the findings set out here.

For orientation: IC50 means the midpoint of a concentration-inhibition curve.

B1: LPL(28-475)-(G4S)4-hGPIHBP1(21-151)-FLAG-HIS6-Avi (enzyme)
chain: ADQRRDFIDIESKFALRTPEDTAEDTCHLIPGVAESVATCHFNHSSKTFMVIHGWTVTGMYESWVPKLVAALYKREPDSNVIVVDWLSRAQEHYPVSAGYTKLVGQDVARFINWMEEEFNYPLDNVHLLGYSLGAHAAGIAGSLTNKKVNRITGLDPAGPNFEYAEAPSRLSPDDADFVDVLHTFTRGSPGRSIGIQKPVGHVDIYPNGGTFQPGCNIGEAIRVIAERGLGDVDQLVKCSHERSIHLFIDSLLNEENPSKAYRCSSKEAFEKGLCLSCRKNRCNNLGYEINKVRAKRSSKMYLKTRSQMPYKVFHYQVKIHFSGTESETHTNQAFEISLYGTVAESENIPFTLPEVSTNKTYSFLIYTEVDIGELLMLKLKWKSDSYFSWSDWWSSPGFAIQKIRVKAGETQKKVIFCSREKVSHLQKGKAPAVFVKCHDKSLNKKSGGGGGSGGGGSGGGGSGGGGSQTQQEEEEEDEDHGPDDYDEEDEDEVEEEETNRLPGGRSRVLLRCYTCKSLPRDERCNLTQNCSHGQTCTTLIAHGNTESGLLTTHSTWCTDSCQPITKTVEGTQVTMTCCQSSLCNVPPWQSSRVQDPTGDYKDDDDKHHHHHHGGGLNDIFEAQKIEWHE
modifications: biotin on the C-terminal AviTag in the ELISA and SPR assays
notes: also called LPL-GPIHBP1 fusion polypeptide; LPL-GPIHBP1 fusion
B2: Human ANGPTL4(26-406)-FLAG-6HIS-Avi (ligand)
chain: GPVQSKSPRFASWDEMNVLAHGLLQLGQGLREHAERTRSQLSALERRLSACGSACQGTEGSTDLPLAPESRVDPEVLHSLQTQLKAQNSRIQQLFHKVAQQQRHLEKQHLRIQHLQSQFGLLDHKHLDHEVAKPARRKRLPEMAQPVDPAHNVSRLHRLPRDCQELFQVGERQSGLFEIQPQGSPPFLVNCKMTSDGGWTVIQRRHDGSVDFNRPWEAYKAGFGDPHGEFWLGLEKVHSITGDRNSRLAVQLRDWDGNAELLQFSVHLGGEDTAYSLQLTAPVAGQLGATTVPPSGLSVPFSTWDQDHDLRRDKNCAKSLSGGWWFGTCSHSNLNGQYFRSIPQQRQKLKKGIFWKTWRGRYYPLQATTMLIQPMAAEAASDYKDDDDKHHHHHHGGGLNDIFEAQKIEWHE
B3: Human soluble GPIHBP1(21-151)-FLAG-HIS6-Avi (receptor)
chain: QTQQEEEEEDEDHGPDDYDEEDEDEVEEEETNRLPGGRSRVLLRCYTCKSLPRDERCNLTQNCSHGQTCTTLIAHGNTESGLLTTHSTWCTDSCQPITKTVEGTQVTMTCCQSSLCNVPPWQSSRVQDPTGDYKDDDDKHHHHHHGGGLNDIFEAQKIEWHE
modifications: biotin on the C-terminal AviTag (BirA, site-specific) where used for immobilisation on streptavidin
notes: also called solGPIHBP1 with C-terminal FHA tag; C-terminally biotinylated GPIHBP1

The target of assay [1] is Recombinant human LPL (mature human lipoprotein lipase, amino acids 28-475) (human) (UniProt P06858). Kind of assay: cell-based or functional assay.
Assay [2] has as its target Co-expressed human LPL/soluble GPIHBP1 complex (human) (UniProt P06858). Kind of assay: cell-based or functional assay.
For assay [3], the target named is T1, hANGPTL4-myc (human, UniProt Q9BY76).
T1 construct: residues 26-406; It is a different tag version from m7; also called ANGPTL4(26-406)-6HIS-myc
T1 sequence (single chain, looked up): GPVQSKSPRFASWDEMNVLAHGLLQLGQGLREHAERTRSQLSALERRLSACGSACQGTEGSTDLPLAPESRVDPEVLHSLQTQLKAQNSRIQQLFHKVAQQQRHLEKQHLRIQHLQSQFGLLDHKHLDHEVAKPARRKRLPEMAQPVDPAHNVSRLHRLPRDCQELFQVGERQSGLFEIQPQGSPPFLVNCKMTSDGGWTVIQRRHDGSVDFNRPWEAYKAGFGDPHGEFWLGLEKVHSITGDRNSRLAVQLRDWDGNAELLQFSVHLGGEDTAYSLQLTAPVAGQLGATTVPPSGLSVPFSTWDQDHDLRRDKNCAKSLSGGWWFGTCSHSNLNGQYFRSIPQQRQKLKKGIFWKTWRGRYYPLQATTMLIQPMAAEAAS
The experiment in a line: TR-FRET binding assay (anti-HA-Tb / anti-myc-D2). Target taken from paragraph 181 (fusion polypeptide); the methods instead describe a 6HIS-hLPL-HA-Flag/hGPIHBP1-Avi complex at 10 nM. [cont.) C) left graph].

Assay [4] addresses B2. The experiment in a line: MSD ELISA: 10 nM biotinylated fusion incubated with ANGPTL4 and captured on streptavidin; bound ANGPTL4 detected with an ANGPTL4 Ab. How it is done: LPL-GPIHBP1 complex or LPL-GPIHBP1 fusion (10 nM, site-specifically biotinylated at the C-terminal end of GPIHBP1) were incubated with increasing concentrations of ANGPTL4 (a 12 point 2-fold serial dilution with highest concentration of 100 nM). The reaction mix was then applied onto a streptavidin coated MSD. The presence of LPL and ANGPTL4 was detected using an LPL or ANGPTL4 specific Abs, which were subsequently quantified using sulpho-tagged secondary Ab. To generate a signal, lx MSD read buffer T was added and the plate was developed using a Sector Imager 6000 (Meso Scale Discovery).
First, the co-expressed LPL/GPIHBP1 complex or the LPL-GPIHBP1 fusion polypeptide was immobilized on a streptavidin surface through C-terminally biotinylated GPIHBP1. The proteins were then incubated with ANGPTL4 and changes in bound ANGPTL4 and LPL were monitored with respective high affinity antibodies. A schematic representation of the assay is depicted on top of FIG. 3, panel A. When the complex was incubated with ANGPTL4, displacement of LPL from the co-expressed LPL/GPIHBP1 complex as function of ANGPTL4 concentration was observed. On the other hand, ANGPTL4 was unable to displace LPL from the covalently linked LPL-GPIHBP1 fusion polypeptide (FIG. 3, panel A, left side). Correspondingly, when bound ANGPTL4 was probed, ANGPTL4 was not captured by the co-expressed LPL/GPIHBP1 complex. […]

The target of assay [5] is T2, Recombinant human LPL (mature human lipoprotein lipase, amino acids 28-475) (human, UniProt P06858 28-475).
T2 sequence: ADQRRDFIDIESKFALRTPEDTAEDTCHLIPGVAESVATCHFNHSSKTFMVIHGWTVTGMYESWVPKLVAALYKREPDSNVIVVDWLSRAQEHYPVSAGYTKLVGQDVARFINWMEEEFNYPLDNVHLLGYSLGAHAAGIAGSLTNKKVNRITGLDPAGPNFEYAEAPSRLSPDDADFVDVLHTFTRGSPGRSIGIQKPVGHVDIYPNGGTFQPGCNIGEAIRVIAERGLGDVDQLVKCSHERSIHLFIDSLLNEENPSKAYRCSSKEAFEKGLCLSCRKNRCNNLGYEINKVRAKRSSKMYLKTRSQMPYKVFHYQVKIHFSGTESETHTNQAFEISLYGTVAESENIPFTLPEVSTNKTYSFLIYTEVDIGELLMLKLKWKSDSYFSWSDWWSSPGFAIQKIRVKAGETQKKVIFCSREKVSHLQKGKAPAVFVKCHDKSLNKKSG
The experiment in a line: cell-based or functional assay.

Assay [6] addresses T3, Co-expressed human LPL/soluble GPIHBP1 complex (human, UniProt P06858 28-475; Q8IV16 21-151, biotin at the C-terminal end of GPIHBP1 in the ELISA and SPR assays).
T3 sequence 1: T2 sequence
T3 sequence 2: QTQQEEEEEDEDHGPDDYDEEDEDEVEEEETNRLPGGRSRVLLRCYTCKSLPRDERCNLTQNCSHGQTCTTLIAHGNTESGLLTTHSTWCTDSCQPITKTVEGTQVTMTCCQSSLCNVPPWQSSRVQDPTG
The experiment in a line: cell-based or functional assay.

Assay [7] has as its target B1. Kind of assay: cell-based or functional assay.
The target of assay [8] is T3, Co-expressed human LPL/soluble GPIHBP1 …. Kind of assay: TR-FRET dissociation of the LPL/GPIHBP1 complex: ANGPTL4 binds the LPL of the complex and displaces the labelled GPIHBP1. FRET ratio falls from about 20000 to about 1000 between log -1 and log 3 (nM). [cont.) D].
Assay [9] has the same target. The experiment in a line: TR-FRET dissociation of the LPL/GPIHBP1 complex (10 nM 6HIS-hLPL-HA-Flag / biotinylated hGPIHBP1-Avi, anti-HA-Tb / streptavidin-D2). ANGPTL4 binds LPL and displaces GPIHBP1. [cont.) C) right graph]. How it is done: The assay for TR-FRET based detection of ANGPTL4 binding to the LPL/GPIHBP1 complex was carried out in 384-well plates (ProxiPlate™ 384-well white, Perkin Elmer, USA) in a final volume of 20 μl. The composition of the assay buffer was 20 mM HEPES pH=7.4, 100 mM NaCl, 10% HI-FBS, 5 mM CaCl₂). The assay procedure was as follows: First 4 μL/well of 5x 6HIS-hLPL-HA-Flag/biotinylated hGPIHBP1-Avi complex (50 nM stock in assay buffer, 10 nM complex final concentration) was added to 8 μL/well buffer. Then 4 μL/well 5x non-biotinylated ANGPTL4(26-406)-Flag-6HIS-Avi (final concentrations of 1 to 1000 nM) was added and incubation was carried out at room temperature for 1 hour. After incubation 4 μL 5× anti-HA-Tb/[…] (Cisbio, diluted in assay buffer to 1.25 nM anti-HA-Tb/50 nM streptavidin-D2 stock concentration) (0.3125 nM anti-HA-Tb/10 nM streptavidin-D2 final concentration) was added and the mixture was incubated at room temperature for 3 hours. Finally the plate was read on an Envision plate reader Ex=320 Em=665 Em=615.
In general terms: TR-FRET usually uses a lanthanide donor and a delayed reading to cut background.

The target is the same in assay [10]. Kind of assay: TR-FRET dissociation of the LPL/GPIHBP1 complex: free hGPIHBP1-FHA binds the LPL of the complex and competes with the labelled GPIHBP1. FRET ratio falls from about 20000 to about 1000 between log -1 and log 3 (nM). [cont.) D].

Where “and” joins values, the source holds several entries; their conditions need not be identical. Equal values may be shown once.

With “Human ANGPTL3(17-460)-FLAG-HIS6-Avi (from UniProt Q9Y5C1 17-460) (ligand)”, the IC50 of ANGPTL3 inactivation of LPL enzymatic activity in assay [1] was 7 nM and 8 nM. Further, in [2], the IC50 of ANGPTL3 inactivation of LPL enzymatic activity came to 300 nM and the fold resistance to ANGPTL3 inactivation against LPL alone was more than 37 fold.
Take B1: the binding result in assay [3] and in assay [4] was “binds” throughout.
Turning to B2, the “IC50 of ANGPTL4 inactivation of LPL enzymatic activity” value in [5] is 3 nM. Besides, in assay [6], the “IC50 of ANGPTL4 inactivation of LPL enzymatic activity” value amounted to 19 nM and the “fold resistance to ANGPTL4 inactivation against LPL alone” value is more than 6 fold. Besides, in [7], the “IC50 of ANGPTL4 inactivation of LPL enzymatic activity” value is 107 nM, the “fold increase of the IC50 of ANGPTL4 inactivation against LPL alone” value is more than 35 fold and the “fold increase of the IC50 of ANGPTL4 inactivation against the co-expressed LPL/GPIHBP1 complex” value is more than 5 fold. For the same molecule, the IC50 in assay [8] was 18 nM. For the same molecule, the “IC50 (read off the curve)” value in [9] was approximately 20 nM.
With B3, the IC50 in assay [10] was determined as 15 nM.
